Consider 20 molecules from article PMC8415317 (Genes & Development, 2021).

Changes are numbered by the printed parent chain. Numbers in names are those of the source. Where no end group is shown, it is not given here.

Data set [1] concerns ERH-2. The format is binding, C. elegans.
Data set [2] has as its target T1, ERH-1 (Caenorhabditis elegans, UniProt Q22640).
T1 sequence (Q22640 1-103): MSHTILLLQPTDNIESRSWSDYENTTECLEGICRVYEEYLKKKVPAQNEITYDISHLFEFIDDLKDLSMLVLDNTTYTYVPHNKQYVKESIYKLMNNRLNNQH
Nature of the data set: Isothermal titration calorimetry, binding to ERH-1. More on the design: species or system C. elegans. (ITC needs no label: the signal is the heat of the interaction.)

In another data set the target is T2, ERH-2:PID-3^pep 1:2 (Caenorhabditis elegans, UniProt O76616+Q20057).
T2 sequence (Q20057 1-113): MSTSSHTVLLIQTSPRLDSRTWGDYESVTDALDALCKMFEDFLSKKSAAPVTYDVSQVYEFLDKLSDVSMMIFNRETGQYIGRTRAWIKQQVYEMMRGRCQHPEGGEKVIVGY
T2 sequence (O76616 171-203 partner limits assumed): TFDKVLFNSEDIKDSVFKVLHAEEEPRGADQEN
Nature of the data set: Isothermal titration calorimetry, binding to ERH-2:PID-3^pep 1:2. More on the design: species or system C. elegans.

The target in data set [3] is T3, ERH-2 (Caenorhabditis elegans, UniProt Q20057).
T3 sequence (Q20057 1-113): T2 sequence (Q20057 1-113)
Nature of the data set: NMR-monitored titration of 15N-labeled ERH-2. In kind it is binding, C. elegans. To be noted: 1H-15N HSQC titration, 25°C, NMR buffer pH 7.50, ERH-2 ~200 μM.

In data set [4] the target is T3, ERH-2. Nature of the data set: Isothermal titration calorimetry, binding to ERH-2. More on the design: species or system C. elegans.
The subject of data set [5] is ERH-2. The data set is described as follows: Streptavidin pull-down, TOST-1/PID-1 mVenus-Strep bait with ERH-2. The format is binding, C. elegans. To be noted: TOST-1 or PID-1 mVenus-Strep bait 10-20 μM, prey 1.2-fold molar excess, 4°C.
The target of data set [6] is T1, ERH-1. Nature of the data set: Streptavidin pull-down, TOST-1/PID-1 mVenus-Strep bait with ERH-1. In kind it is binding, C. elegans. The note with it: TOST-1 or PID-1 mVenus-Strep bait 10-20 μM, prey 1.2-fold molar excess, 4°C.
A further data set has as its target T4, TOFU-6^RRM (C. elegans, UniProt Q09293 1-99).
T4 sequence (looked up): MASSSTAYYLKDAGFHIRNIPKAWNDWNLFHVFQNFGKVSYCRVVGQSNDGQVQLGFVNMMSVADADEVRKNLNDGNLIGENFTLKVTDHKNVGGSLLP
Nature of the data set: SEC.

The data set “SEC-MALS” concerns the molecule itself. The data set is described as follows: SEC-MALS. (Size exclusion chromatography separates by hydrodynamic size, large species first.)
The nature of data set [7]: SEC-MALS, molecular mass and oligomeric state. The format is physicochemical, C. elegans. The note with it: for average molecular mass: 2-5 mg/mL, 20 mM Tris/HCl pH 7.5, 150 mM NaCl, 2 mM DTT.
In a further data set the target is T5, full-length ERH-2^FL (C. elegans, UniProt Q20057 1-113).
T5 sequence (looked up): T2 sequence (Q20057 1-113)
The data set is described as follows: ITC.

In a further data set the target is T6, TOST-1-mVenus-Strep (C. elegans, UniProt Q18490 1-142).
T6 sequence (looked up): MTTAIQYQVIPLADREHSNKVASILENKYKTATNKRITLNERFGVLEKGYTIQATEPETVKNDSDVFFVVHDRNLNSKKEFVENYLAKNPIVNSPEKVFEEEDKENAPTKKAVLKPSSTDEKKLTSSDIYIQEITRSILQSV
The data set is described as follows: pull-down.

The data set “crystal structure” concerns the molecule itself. The data set is described as follows: crystal structure.
In a further data set the test system is PID-3/TOFU-6 interaction. In kind it is binding, C. elegans.
Data set [8] deals with Cy5-labeled 16-mer oligo(U) RNA. The data set is described as follows: Fluorescence anisotropy RNA binding, Cy5-U16. The note with it: 100 nM Cy5-U16 RNA, 10 mM Tris/HCl pH 7.5, 50 mM KCl, 0.5 mM EDTA, ≥2 h at 15°C, single binding site model, n = 3 technical replicates. Background: Polarisation of emitted light reports the rotation of a fluorescent probe.
The test system of a further data set is TOST-1. Nature of the data set: Streptavidin pull-down of ERH-2 variants with TOST-1-mVenus-Strep. The note with it: ERH-2 variants as prey, TOST-1-mVenus-Strep as bait. In kind it is binding, C. elegans.

With “GST-PID-3^pep: GST-tagged PID-3 peptide (residues 171–203) (TFDKVLFNSEDIKDSVFKVLHAEEEPRGADQEN; also: N-terminal His6 and GST tags, order not given here)”, the “binding to ERH-2 in GST pull-down” value with ERH-2 [1] is “ERH-2 could indeed bind to GST-PID-3^pep”. A word on the Kd: it is the equilibrium constant for the complex coming apart. A low value points to higher affinity. Consider KYKTATNKRITLNERFGVLEKGYTIQ [TOST-1^pep], for which the Kd amounted to 10 ± 2 µM on ERH-1 [2] and 4 ± 2 µM on ERH-2:PID-3^pep 1:2. Besides, on ERH-2 [3], the “dissociation constant range from NMR exchange regime” value was “micromolar range”. Turning to “NYNTNLHRKVTLSDRFELAALGYEMKAK [PID-1^pep]”, the Kd on ERH-2 [4] was 24 ± 3 µM; on ERH-1 [2], 73 ± 11 µM. Also, the “dissociation constant range from NMR exchange regime” value on ERH-2 [3] is given as “micromolar range”. As for “PID-1: full-length PID-1, C-terminally tagged with monomeric Venus StrepII tag (NYNTNLHRKVTLSDRFELAALGYEMKAK)”, the “binding to ERH-2 in streptavidin pull-down” value in the data set on ERH-2 [5] was “Both PID-1 and TOST-1 bound ERH-2”. Moreover, in the data set with ERH-1 [6], the “binding to ERH-1 in streptavidin pull-down” value was “interacted with ERH-1”.

B1: PID-3^RRM (domain or fragment, C. elegans, UniProt O76616 196-274, looked up)
chain: PRGADQENMLKISGYPGMLNTFGIAQLLTPYRVNGITITGAQSAVVALENKFQVYQAVQDFNGKKLDRNHKLQVSSLVV
In the case of B1, the binding result with TOFU-6^RRM is “binds”.

B2: PID-3^RRM F247E/Q251R (purified) (domain or fragment, C. elegans, UniProt O76616 196-274, looked up)
chain: B1 chain with F52E, Q56R
Usually stoichiometry N stands for a count of units in the complex or per binding partner. Regarding B2, in “SEC-MALS”, the “stoichiometry N” value stood at 2.

B3: PID-3^RRM A220E (protein)
chain: B1 chain with A25E
modifications: left off: His6, N-terminal, kept | GST, N-terminal, kept
Turning to B3, in data set [7], the oligomeric state result was “monomeric”.

B4: PID-3^RRM F247E/Q251R (protein)
chain: B1 chain with F52E, Q56R
modifications: left off: His6, N-terminal, kept | GST, N-terminal, kept
For B4, the oligomeric state entry in data set [7] is given as “homodimeric”. KYKTATNKRITLNERFGVLEKGYTIQ (peptide, UniProt Q18490 28-53, looked up) [TOST-1^pep]: in the data set with full-length ERH-2^FL, the Kd was 13 µM.

B5: ERH-1 (natural protein, C. elegans, UniProt Q22640 1-103, looked up)
chain: T1 sequence (Q22640 1-103)
With B5, the binding result with TOST-1-mVenus-Strep is given as “binds”.

B6: ERH-2^ΔC (domain or fragment, C. elegans, UniProt Q20057 1-99, looked up)
chain: MSTSSHTVLLIQTSPRLDSRTWGDYESVTDALDALCKMFEDFLSKKSAAPVTYDVSQVYEFLDKLSDVSMMIFNRETGQYIGRTRAWIKQQVYEMMRGR
For B6, the binding result in the data set “crystal structure” is “binds”.

B7: TOFU-6^RRM: TOFU-6 RRM domain, residues 1–99 (protein)
chain: T4 sequence (looked up)
modifications: left off: His10, N-terminal, state not stated | MBP, N-terminal, state not stated
With B7, the “PID-3/TOFU-6 interaction in pull-down” value in the data set on PID-3/TOFU-6 interaction is “the RRM domains of PID-3 and TOFU-6 mediate the interaction between the two proteins”. Further, the Kd in data set [8] was roughly 60 µM.

B8: I182E and S185E: GST-tagged PID-3 mutant(s), Ile182 and Ser185 to glutamate (conjugate, UniProt O76616 1-307, looked up, variant I182E S185E)
Protein pid-3: MVAHQKADFKSKWAMVVTVNNLNDKKRADLREFSEWFIETLRLEGAFIGHYFNYEAAPVTIVETLPGNFDSCTNAYQKIHKEHPQVVLVVHILPQSQSNEYEWMKVLASRYGFVRQGLLYDNCANRFQNVETDQNSVFRNMCQWIYRSGTAIVRNEGNACGILHGKDPKPTFDKVLFNSEDEKDEVFKVLHAEEEPRGADQENMLKISGYPGMLNTFGIAQLLTPYRVNGITITGAQSAVVALENKFQVYQAVQDFNGKKLDRNHKLQVSSLVVSSPAVPLEWPSLKKSKKLVEQVGKPIRLSKVSS
modifications: GST tag
With B8, the “binding to ERH-2 in GST pull-down” value in the data set on ERH-2 [1] is recorded as “completely abrogated binding of PID-3^pep to ERH-2”.

B9: I182A and V186A: GST-tagged PID-3 mutant(s), Ile182 and Val186 to alanine (conjugate, UniProt O76616 1-307, looked up, variant I182A V186A)
Protein pid-3: B8 Protein pid-3 with E182A, E185S, V186A
modifications: GST tag
As to B9, the “binding to ERH-2 in GST pull-down” value with ERH-2 [1] was “sufficient to abolish binding”. For the molecule TFDKVLFNSEDIKDSVFKVLHAEEEPRGADQEN (peptide, UniProt O76616 171-203, looked up) [PID-3^pep], the “stoichiometry N” value with full-length ERH-2^FL was determined as 0.97.

B10: ERH-2 T13E (purified) (natural protein, C. elegans, UniProt Q20057 1-113, looked up)
chain: T2 sequence (Q20057 1-113) with T13E
On to B10, for which the binding result in the data set with TOST-1-mVenus-Strep is reported as “binds”.

B11: I81A/R83A (protein)
chain: T2 sequence (Q20057 1-113) with I81A, R83A
modifications: left off: His6, N-terminal, state not stated | Trx, N-terminal, state not stated
For B11, in the data set on TOST-1, the “binding to TOST-1 in streptavidin pull-down” value is recorded as “weaker interaction with TOST-1”.

B12: PID-3/ERH-2: PID-3/ERH-2 subcomplex (protein, UniProt O76616 1-307; Q20057 1-113, looked up)
Protein pid-3: B8 Protein pid-3 with E182I, E185S
Enhancer of rudimentary …: T2 sequence (Q20057 1-113)
In [7], B12 gave an average molecular mass of 92 kDa.

B13: ERH-2: full-length C. elegans ERH-2 (protein, UniProt Q20057 1-113, looked up)
chain: T2 sequence (Q20057 1-113)
modifications: full-length
In the case of B13, in [7], the oligomeric state result is “homodimers” and the average molecular mass is recorded as 27 kDa.

B14: W87A (protein)
chain: T2 sequence (Q20057 1-113) with W87A
modifications: left off: His6, N-terminal, state not stated | Trx, N-terminal, state not stated
Turning to B14, the “binding to TOST-1 in streptavidin pull-down” value in the data set with TOST-1 is given as “weaker interaction with TOST-1”.
